Measured values: patent publication US20130243795A1 (Janssen / Centocor, published 2013)
Residue numbers refer to the chain shown, from its start.

B1: M669 (antibody, V domains shown)
VH: QVQLVQSGAEVKKPGASVKVSCKASGYAFSSSWMNWVRQAPGQGLEWMGRIYSGDADTNYNQKFKGRVTMTRDTSTSTVYMELSSLRSEDTAVYYCARSDYYGDYGFAYWGQGTLVTVSS
VL: DIQMTQSPSSLSASVGDRVTITCKASQSVDYAGESFMNWYQQKPGKAPKLLIYAASNLESGVPSRFSGSGSGTDFTLTISSLQPEDFATYYCQQSNEDPYTFGQGTKVEIK
notes: isotype not restated (path 2); also called H256,L266
B2: M672 (antibody, V domains shown)
VH: B1 VH with N61A
VL: B1 VL with G33H
notes: isotype not restated (path 2); also called H255,L217
B3: M673 (antibody, V domains shown)
VH: B1 VH
VL: B1 VL with G33H
notes: isotype not restated (path 2); also called H256,L217
B4: M670 (antibody, V domains shown)
VH: EVQLVQSGAEVKKPGESLKISCKGSGYAFSSSWMNWVRQMPGKGLEWMGRIYSGDADTNYAQKFKGQVTISADKSISTAYLQWSSLKASDTAMYYCARSDYYGDYGFAYWGQGTLVTVSS
VL: B1 VL
notes: isotype not restated (path 2); also called H257,L266
B5: M69-derived Fab with VH H239 (Fab, V domains shown)
VH: B4 VH with S53A, A56G, A61S, Q62P, K63S, K65Q
VL: DIVMTQSPDSLAVSLGERATINCKASQSVDYAGDSYMNWYQQKPGQPPKLLIYAASNLESGVPDRFSGSGSGTDFTLTISSLQAEDVAVYYCQQSNEDPYTFGQGTKLEIK
notes: clone of library C27H28L2; pairing with parent L35 inferred
B6: M69-derived Fab with VH H236 (Fab, V domains shown)
VH: B4 VH with S53P, A56G, A61S, Q62P, K63S, K65Q, S99A, A108G
VL: B5 VL
notes: clone of library C27H28L3; pairing with the parent L35 light chain is inferred from the library design
B7: M69-derived Fab with VH H237 (Fab, V domains shown)
VH: B4 VH with Y52F, S53V, G54R, A56G, A61S, Q62P, K63S, K65Q
VL: B5 VL
notes: as for B5
B8: M69-derived Fab with VH H238 (Fab, V domains shown)
VH: B4 VH with S53V, A56G, A61S, Q62P, K63S, K65Q
VL: B5 VL
notes: as for B5
B9: M69-derived Fab with VH H240 (Fab, V domains shown)
VH: B4 VH with S53A, G54R, A56G, A61S, Q62P, K63S, K65Q
VL: B5 VL
notes: as for B5
B10: M69-derived Fab with VH H241 (Fab, V domains shown)
VH: B4 VH with S53G, G54R, A56G, A61S, Q62P, K63S, K65Q
VL: B5 VL
notes: as for B5
B11: M69-derived Fab with VH H242 (Fab, V domains shown)
VH: B4 VH with S53A, G54N, A56G, A61S, Q62P, K63S, K65Q
VL: B5 VL
notes: as for B5
B12: M69-derived Fab with VH H243 (Fab, V domains shown)
VH: B4 VH with S53G, A56G, A61S, Q62P, K63S, K65Q
VL: B5 VL
notes: as for B5
B13: M69-derived Fab with VH H244 (Fab, V domains shown)
VH: B4 VH with A56G, A61S, Q62P, K63S, K65Q
VL: B5 VL
notes: as for B5
B14: M69-derived Fab with VH H245 (Fab, V domains shown)
VH: B4 VH with G8V, G54R, A56G, A61S, Q62P, K63S, K65Q
VL: B5 VL
notes: as for B5
B15: M69-derived Fab with VL L255 (Fab, V domains shown)
VH: B4 VH with S53P, A56G, A61S, Q62P, K63S, K65Q
VL: B5 VL with Y36F
notes: clone recovered from the CDR-L1 libraries of L35; pairing with the parent H28 heavy chain inferred
B16: M69-derived Fab with VL L256 (Fab, V domains shown)
VH: B4 VH with S53P, A56G, A61S, Q62P, K63S, K65Q
VL: B5 VL with Y36W, A54V
notes: clone of library C27L35L2; pairing with parent H28 inferred
B17: M69-derived Fab with VL L257 (Fab, V domains shown)
VH: B4 VH with S53P, A56G, A61S, Q62P, K63S, K65Q
VL: B5 VL with Y36W, A54T, Q83L
notes: as for B16
B18: M69-derived Fab with VL L260 (Fab, V domains shown)
VH: B4 VH with S53P, A56G, A61S, Q62P, K63S, K65Q
VL: B5 VL with Y31W, D34H, Y36W, A54T
notes: as for B16
B19: M69-derived Fab with VL L261 (Fab, V domains shown)
VH: B4 VH with S53P, A56G, A61S, Q62P, K63S, K65Q
VL: B5 VL with D34S, Y36F, A54E
notes: as for B16
B20: M159 (antibody, human IgG4, V domains shown)
VH: B1 VH with S53P, A56G, Q62G
VL: B1 VL with E34D, F36Y
notes: also called H25,L220; parental mAb
B21: M150 (antibody, human IgG4, V domains shown)
VH: B1 VH with S53P, A56G, Q62G
VL: B1 VL with A32F, E34D, F36L
notes: also called H25,L218
B22: M151 (antibody, human IgG4, V domains shown)
VH: B1 VH with S53P, A56G, Q62G
VL: B1 VL with T20A, A32Y, G33N, E34S
notes: also called H25,L224
B23: M152 (antibody, human IgG4, V domains shown)
VH: B1 VH with S53P, A56G, Q62G
VL: B1 VL with A32W, G33S, E34D
notes: also called H25,L223
B24: M153 (antibody, human IgG4, V domains shown)
VH: B1 VH with S53P, A56G, Q62G
VL: B1 VL with A32V, E34T
notes: also called H25,L222
B25: M154 (antibody, human IgG4, V domains shown)
VH: B1 VH with S53P, A56G, Q62G
VL: B1 VL with A32F, G33R, E34T
notes: also called H25,L221
B26: M161 (antibody, human IgG4, V domains shown)
VH: B1 VH with A56G, Q62G
VL: B1 VL with A32F, E34D, F36L
notes: also called H196,L218
B27: M162 (antibody, human IgG4, V domains shown)
VH: B1 VH with A56G, Q62G
VL: B1 VL with T20A, A32Y, G33N, E34S
notes: also called H196,L224
B28: M163 (antibody, human IgG4, V domains shown)
VH: B1 VH with A56G, Q62G
VL: B1 VL with A32W, G33S, E34D
notes: also called H196,L223
B29: M164 (antibody, human IgG4, V domains shown)
VH: B1 VH with A56G, Q62G
VL: B1 VL with A32V, E34T
notes: also called H196,L222
B30: M165 (antibody, human IgG4, V domains shown)
VH: B1 VH with A56G, Q62G
VL: B1 VL with A32F, G33R, E34T
notes: also called H196,L221

Target: T1, Human CD27 ECD truncated (ECD 1-121, cleavage site, His6) (human)
T1 construct: also called human CD27 ECD with His Tag; CD27-His
T1 chain: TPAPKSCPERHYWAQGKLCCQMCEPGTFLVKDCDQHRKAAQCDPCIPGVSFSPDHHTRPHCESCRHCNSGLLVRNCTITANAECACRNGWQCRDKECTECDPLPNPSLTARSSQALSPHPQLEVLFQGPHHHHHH
Test: ProteOn SPR, purified mAb, CD27-His

**Q.** B1 was tested. Which Kd did it give?
**A.** The Kd was 0.058 nM.

**Q.** And the koff?
**A.** Its koff is 0.000145 s⁻¹.

**Q.** What about the kon of the same binder?
**A.** Its kon is 2.49e+06 M⁻¹ s⁻¹.

**Q.** How did the Kd turn out when B2 was run?
**A.** Its Kd is 0.144 nM.

**Q.** And the koff?
**A.** Its koff is 0.000264 s⁻¹.

**Q.** What about the kon of the same binder?
**A.** The kon was 1.83e+06 M⁻¹ s⁻¹.

**Q.** How did the Kd turn out when B3 was run?
**A.** Its Kd is 0.1 nM.

**Q.** And the koff?
**A.** Its koff is 0.000189 s⁻¹.

**Q.** And the kon?
**A.** Its kon is 1.89e+06 M⁻¹ s⁻¹.

**Q.** With B4 as the binder, how does the Kd read?
**A.** The Kd was 0.065 nM.

**Q.** What about the koff of the same binder?
**A.** The koff was 0.000113 s⁻¹.

**Q.** What about the kon of the same binder?
**A.** The kon was 1.73e+06 M⁻¹ s⁻¹.

Target: T2, Human CD27 ECD (ECD 1-173, His6) (human, UniProt P26842 21-193, biotinylated on amine residues (NHS-ester) where used biotinylated)
T2 construct: also called biotinylated human CD27 ECD
Test: Fab ELISA; Fab captured by anti-Fd, biotinylated CD27 ECD at 0.2 nM

**Q.** Which “percent binding of the parent” value does the source give for B5 here?
**A.** Its value is ≥ 100%.

**Q.** For B6, which “percent binding of the parent” value is on record?
**A.** The value was ≥ 100%.

**Q.** Which “percent binding of the parent” value does the source give for B7 here?
**A.** Its value is ≥ 100%.

**Q.** Which “percent binding of the parent” value does the source give for B8 here?
**A.** The value was ≥ 100%.

**Q.** With B9 as the binder, how does the “percent binding of the parent” value read?
**A.** The value was ≥ 100%.

**Q.** How did the “percent binding of the parent” value turn out when B10 was run?
**A.** Its value is ≥ 100%.

**Q.** With B11 as the binder, how does the “percent binding of the parent” value read?
**A.** The value was ≥ 100%.

**Q.** With B12 as the binder, how does the “percent binding of the parent” value read?
**A.** Its value is ≥ 100%.

**Q.** B13 was tested. Which “percent binding of the parent” value did it give?
**A.** Its value is ≥ 100%.

**Q.** How did the “percent binding of the parent” value turn out when B14 was run?
**A.** The value was ≥ 100%.

**Q.** With B15 as the binder, how does the “percent binding of the parent” value read?
**A.** The value was ≥ 100%.

**Q.** How did the “percent binding of the parent” value turn out when B16 was run?
**A.** Its value is ≥ 100%.

**Q.** Which “percent binding of the parent” value does the source give for B17 here?
**A.** The value was ≥ 100%.

**Q.** How did the “percent binding of the parent” value turn out when B18 was run?
**A.** The value was ≥ 100%.

**Q.** Which “percent binding of the parent” value does the source give for B19 here?
**A.** Its value is ≥ 100%.

Target: T1, Human CD27 ECD truncated (ECD 1-121, …)
Test: ProteOn SPR, culture supernatants

**Q.** For B20, which Kd is on record?
**A.** The Kd was 2.23 nM.

**Q.** Which Kd does the source give for B21 here?
**A.** Its Kd is 4.04 nM.

**Q.** B22 was tested. Which Kd did it give?
**A.** Its Kd is 1.07 nM.

**Q.** How did the Kd turn out when B23 was run?
**A.** The Kd was 1.54 nM.

**Q.** For B24, which Kd is on record?
**A.** The Kd was 1.41 nM.

**Q.** How did the Kd turn out when B25 was run?
**A.** The Kd was 1.56 nM.

**Q.** For B26, which Kd is on record?
**A.** The Kd was 1.34 nM.

**Q.** B27 was tested. Which Kd did it give?
**A.** The Kd was 0.43 nM.

**Q.** How did the Kd turn out when B28 was run?
**A.** Its Kd is 0.3 nM.

**Q.** Which Kd does the source give for B29 here?
**A.** The Kd was 0.27 nM.

**Q.** With B30 as the binder, how does the Kd read?
**A.** The Kd was 0.18 nM.
